Data set [1] concerns the target atf-7 (C07G2.2) (Caenorhabditis elegans) (UniProt Q86MD3).
Data set [2] addresses T1, atf-5 (T04C10.4) (Caenorhabditis elegans) (UniProt Q22156).
T1 sequence: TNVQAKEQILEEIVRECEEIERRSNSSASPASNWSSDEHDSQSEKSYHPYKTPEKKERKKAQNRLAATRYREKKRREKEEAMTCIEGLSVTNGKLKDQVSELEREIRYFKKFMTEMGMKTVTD

Data set [3] has as its target T2, xbp-1 (R74.3) (Caenorhabditis elegans) (UniProt G5EE07).
T2 sequence: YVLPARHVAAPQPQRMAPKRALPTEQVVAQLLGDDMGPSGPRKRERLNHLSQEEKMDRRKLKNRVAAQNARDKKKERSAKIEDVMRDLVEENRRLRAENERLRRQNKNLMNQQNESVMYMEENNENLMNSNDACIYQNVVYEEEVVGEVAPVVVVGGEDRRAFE

Data set [4] deals with T3, zip-3 (W07G1.3) (Caenorhabditis elegans) (UniProt Q9XUK2).
T3 sequence: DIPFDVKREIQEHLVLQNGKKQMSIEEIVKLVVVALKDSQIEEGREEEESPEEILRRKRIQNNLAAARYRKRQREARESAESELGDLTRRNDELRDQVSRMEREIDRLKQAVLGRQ

In data set [5] the target is T4, ref-2 (C47C12.3) (Caenorhabditis elegans) (UniProt Q7JNM3).
T4 sequence: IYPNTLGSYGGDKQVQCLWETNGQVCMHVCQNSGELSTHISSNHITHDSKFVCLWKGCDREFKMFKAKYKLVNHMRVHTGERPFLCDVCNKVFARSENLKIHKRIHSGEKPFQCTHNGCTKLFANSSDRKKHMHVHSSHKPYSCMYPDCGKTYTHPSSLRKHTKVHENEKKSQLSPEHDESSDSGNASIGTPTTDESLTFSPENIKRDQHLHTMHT

Data set [6] deals with T5, atf-6 (F45E6.2) (Caenorhabditis elegans) (UniProt Q20435).
T5 sequence: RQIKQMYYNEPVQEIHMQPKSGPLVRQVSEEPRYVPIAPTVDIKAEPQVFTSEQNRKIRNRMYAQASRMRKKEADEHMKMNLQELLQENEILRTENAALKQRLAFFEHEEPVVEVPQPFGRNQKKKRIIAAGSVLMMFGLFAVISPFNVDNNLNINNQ

The target of data set [7] is T6, Y51H4A.4 (Y51H4A.4) (Caenorhabditis elegans) (UniProt Q9NAE4).
T6 sequence: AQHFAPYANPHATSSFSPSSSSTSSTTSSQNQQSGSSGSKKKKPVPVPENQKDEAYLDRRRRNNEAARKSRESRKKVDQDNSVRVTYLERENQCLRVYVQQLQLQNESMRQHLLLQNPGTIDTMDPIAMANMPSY

In data set [8] the target is T7, W08E12.1 (W08E12.1) (Caenorhabditis elegans) (UniProt Q9N5A8).
T7 sequence: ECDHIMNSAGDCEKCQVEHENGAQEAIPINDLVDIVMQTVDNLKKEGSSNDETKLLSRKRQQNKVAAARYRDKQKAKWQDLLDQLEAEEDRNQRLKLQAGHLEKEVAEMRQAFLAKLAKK

In data set [9] the target is T8, T07C12.11 (T07C12.11) (Caenorhabditis elegans) (UniProt G5EGG9).
T8 sequence: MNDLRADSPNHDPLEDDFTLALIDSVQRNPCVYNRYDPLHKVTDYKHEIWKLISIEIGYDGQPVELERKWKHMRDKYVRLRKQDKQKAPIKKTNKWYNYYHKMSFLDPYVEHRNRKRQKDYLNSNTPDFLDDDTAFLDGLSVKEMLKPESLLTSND

Data set [10] has as its target T9, F17A9.3 (F17A9.3) (Caenorhabditis elegans) (UniProt O16213).
T9 sequence: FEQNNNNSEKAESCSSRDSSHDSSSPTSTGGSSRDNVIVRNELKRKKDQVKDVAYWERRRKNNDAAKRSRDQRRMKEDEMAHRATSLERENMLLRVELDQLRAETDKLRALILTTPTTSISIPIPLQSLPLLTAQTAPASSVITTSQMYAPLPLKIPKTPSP

Data set [11] concerns the target T10, atf-2 (K08F8.2) (Caenorhabditis elegans) (UniProt Q21361).
T10 sequence: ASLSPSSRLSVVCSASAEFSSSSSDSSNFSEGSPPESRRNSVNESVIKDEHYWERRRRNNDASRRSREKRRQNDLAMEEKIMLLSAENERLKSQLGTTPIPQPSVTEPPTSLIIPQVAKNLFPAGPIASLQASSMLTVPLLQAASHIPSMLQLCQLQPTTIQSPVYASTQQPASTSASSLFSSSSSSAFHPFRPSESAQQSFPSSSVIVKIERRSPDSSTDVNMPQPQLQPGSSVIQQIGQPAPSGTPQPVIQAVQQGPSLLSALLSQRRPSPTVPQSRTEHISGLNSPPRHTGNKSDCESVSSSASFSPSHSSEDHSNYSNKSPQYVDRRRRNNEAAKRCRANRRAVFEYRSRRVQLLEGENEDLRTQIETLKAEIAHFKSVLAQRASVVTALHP

Experimental findings from paper PMC4434323 are described below.

Chain of atf-7 (C07G2.2) (Caenorhabditis elegans) (Q86MD3 339-508): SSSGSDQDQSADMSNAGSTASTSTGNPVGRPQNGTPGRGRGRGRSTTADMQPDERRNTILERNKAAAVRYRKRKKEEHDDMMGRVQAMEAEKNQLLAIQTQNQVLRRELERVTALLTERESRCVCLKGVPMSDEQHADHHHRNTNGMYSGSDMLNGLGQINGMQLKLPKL

For “ATGACGTG (double strand) [8-mer ATGACGTG]”, the binding signal (PBM E-score (-0.5 to 0.5)) in data set [1] came out at 0.499; in data set [2], 0.485; in data set [3] it was 0.451; in [4] it was 0.494.

In data set [5], “CAGCGGGA (double strand) [8-mer CAGCGGGA]” yielded a binding signal (PBM E-score (-0.5 to 0.5)) of 0.483.

On to “TGACGTAA (double strand) [8-mer TGACGTAA]”, for which the binding signal (PBM E-score (-0.5 to 0.5)) in [1] is 0.495; in data set [6] it was 0.459; in data set [2], 0.49; in data set [7] it was 0.454; in data set [8], 0.47.

With “TTACGTAA (double strand) [8-mer TTACGTAA]”, the binding signal (PBM E-score (-0.5 to 0.5)) was determined as 0.496 in [9], 0.498 in data set [10], 0.498 in [7] and 0.478 in [11].

As for “ACGTCATC (double strand) [8-mer ACGTCATC]”, the binding signal (PBM E-score (-0.5 to 0.5)) in data set [1] was determined as 0.499; in [2], 0.49; in data set [3], 0.471; in [4], 0.493.

Turning to “TGACGTCA (double strand) [8-mer TGACGTCA]”, the binding signal (PBM E-score (-0.5 to 0.5)) in data set [1], in data set [2], in data set [8] and in data set [4] was 0.5 in each case.
